Test results: patent publication US20220160760A1

Target: carcinoembryonic antigen (CEA) (UniProt P06731)
Assay: cell-based or functional assay

Sequence of UniProt P06731 (P06731 35-702 limits assumed): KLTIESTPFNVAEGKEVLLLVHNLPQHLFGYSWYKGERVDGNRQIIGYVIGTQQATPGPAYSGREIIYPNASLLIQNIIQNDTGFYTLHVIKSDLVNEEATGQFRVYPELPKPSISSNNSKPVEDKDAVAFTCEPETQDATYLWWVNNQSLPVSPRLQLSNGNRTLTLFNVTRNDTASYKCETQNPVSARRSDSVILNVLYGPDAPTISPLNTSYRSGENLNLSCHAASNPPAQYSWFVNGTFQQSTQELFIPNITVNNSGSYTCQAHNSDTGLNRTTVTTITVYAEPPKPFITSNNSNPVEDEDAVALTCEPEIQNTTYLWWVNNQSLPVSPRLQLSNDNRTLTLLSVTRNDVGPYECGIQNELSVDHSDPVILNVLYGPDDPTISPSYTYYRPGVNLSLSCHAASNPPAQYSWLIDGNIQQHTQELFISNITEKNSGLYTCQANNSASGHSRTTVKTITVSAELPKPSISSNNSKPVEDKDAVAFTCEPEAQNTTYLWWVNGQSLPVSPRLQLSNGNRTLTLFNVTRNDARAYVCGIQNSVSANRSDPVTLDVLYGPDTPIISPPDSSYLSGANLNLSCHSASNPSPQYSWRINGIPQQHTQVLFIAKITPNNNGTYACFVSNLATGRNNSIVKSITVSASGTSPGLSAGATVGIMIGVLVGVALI

For “MFE23 CoStAR (MFE23.scFv fused to full length human CD28) (receptor)”, the IL-2 secretion by ELISA, T-cells mixed with LoVo-OKT3 cells, average of three donors (non-transduced cells 0.80 ng/ml) was 5 ng/mL.
